Test results published in patent US20130230868A1 (SIEMENS HEALTHCARE DIAGNOSTICS, published 2013).

Assays:
[1] = molecular target: recombinant gain-of-function GPIbα protein fragment (amino acids 1-285 with amino acid substitutions G233V and M239V) (human) (UniProt P07359); test: latex particle agglutination (turbidimetry, 570 nm); inhibition of VWF-GPIbα complex formation by 10 µg/ml AK2 in normal plasma pool
[2] = molecular target: recombinant gain-of-function GPIbα protein fragment (amino acids 1-285 with amino acid substitutions G233V and M239V) (human) (UniProt P07359); test: latex particle agglutination (turbidimetry, 570 nm); inhibition of VWF-GPIbα complex formation by 20 µg/ml AK2 in normal plasma pool
[3] = molecular target: T1, von Willebrand factor (VWF) in plasma (human, UniProt P04275 764-2813); test: latex particle agglutination, turbidimetry at 570 nm
T1 construct: mature; Native multimeric VWF present in plasma, not purified; The number of monomers per multimer varies; also called VWF protein
Description: The sample used was human citrated plasma from six different donors. 60 μl of sample were mixed with 20 μl of plasma containing VWF (91% of norm VWF, control plasma N, Siemens Healthcare Diagnostics Products GmbH, Marburg, Germany), 13 μl of a solution containing a recombinant gain-of-function GPIbα protein fragment (amino acids 1-285 with amino acid substitutions G233V and M239V; 8.4 μg/ml) and 70 μl of an NaCl buffer and incubated for two minutes. Subsequently, 40 μl of a latex particle reagent containing latex particles coated with anti-GPIbα antibodies were added to the assay mix.
Absorbance at 570 nm of the reaction mixture was measured turbidimetrically. Binding of VWF to GPIbα and binding of the GPIbα protein to the latex particles result in particle agglutination. This agglutination leads to an increase in absorbance, the maximum rate of which is determined (mU/min).

Rate of agglutination [1] [mU/min]	Rate of agglutination [2] [mU/min]	binding result [3]	Molecule
266	133	–	anti-GPIb antibody AK2
–	–	binds	recombinant gain-of-function GPIbα protein fragment (amino acids 1-285 with amino acid substitutions G233V and M239V) (receptor) HPICEVSKVASHLEVNCDKRNLTALPPDLPKDTTILHLSENLLYTFSLATLMPYTRLTQLNLDRCELTKLQVDGTLPVLGTLDLSHNQLQSLPLLGQTLPALTVLDVSFNRLTSLPLGALRGLGELQELYLKGNELKTLPPGLLTPTPKLEKLSLANNNLTELPAGLLNGLENLDTLLLQENSLYTIPKGFFGSHLLPFAFLHGNPWLCNCEILYFRRWLQDNAENVYVWKQVVDVKAVTSNVASVQCDNSDKFPVYKYPGKGCPTLGDEGDTDLYDYYPEEDTE
